From patent US12486318B2, “Anti-guanosine antibody as a molecular delivery vehicle” (Yale University, priority 2016, dated 2025)
Entries after “also recorded” stand apart in the source; their conditions may differ.

Key:
DLD1 colon cancer cells = assay: 4H2 scFv cell penetration, protein L immunostaining; type: cell-based; conditions: 6 μM, one hour
[1] = test system: PEO1 human ovarian cancer cells; assay: Cell penetration, immunostaining of fixed cells after one hour treatment; type: cell-based; conditions: washed, alkaline phosphatase-conjugated anti-mouse antibody
Method: The ability of 4H2 to penetrate into live cells was tested. PEO1 human ovarian cancer cells were treated with control media or media containing 4H2 or 3E10 (as a positive control) for one hour, and then cells were washed, fixed, and immunostained with an alkaline phosphatase-conjugated anti-mouse antibody.

[2] = test system: live A549 human lung cancer cells; assay: Live cell penetration of FITC-labeled 4H2, fluorescence microscopy; type: cell-based; conditions: FITC-labeled 4H2 4 mg/mL, one hour
Method: (§1) To confirm that 4H2 penetrates live cells and exclude the observation as a fixation artifact, FITC-labeled 4H2 was applied to live Cal12T and A549 human lung cancer cells at 4 mg/mL for one hour. Cells were also treated with Hoechst and MitoTracker stains to allow detection of nuclei and mitochondria, respectively. Cells were then washed and visualized under a fluorescence microscope.

[3] = test system: live Cal12T human lung cancer cells; assay: as above; type: cell-based; conditions: FITC-labeled 4H2 4 mg/mL, one hour
Method: as §1

Cal12T cells = assay: Cell-penetration and co-localization immunofluorescence assay; type: cell-based, human
Method: Cal12T cells were grown on glass coverslips and treated with control media or media containing 0.5 mg/mL 4H2 for one hour. […] For co-localization studies, the fixed cells were also probed overnight with separate rabbit primary antibodies to detect endosomes (C45B10 anti-EEA1 antibody, Cell Signaling), lysosomes (D2D11 anti-LAMP1 antibody, Cell Signaling), endoplasmic reticulum (C81H6 anti-PDI antibody, Cell Signaling), golgi apparatus (D2B6N anti-RCAS1 antibody, Cell Signaling), mitochondria (3E11 anti-COX IV and D3932 anti-AIF antibodies, Cell Signaling), or K-Ras (anti-K-Ras antibody) extensively washed with PBS, and then incubated with an Alexa555-conjugated goat anti-rabbit IgG antibody (Cell Signaling). Cells were also treated with DAPI, and imaged using an EVOS fl digital fluorescence microscope (Advanced Microscopy Group, Bothell, WA) under light, DAPI, GFP, or RFP filters. Fluorescence images were merged using ImageJ (NIH, Bethesda, MD).
After confirming that 4H2 penetrates live cells, subcellular localization was investigated through immunofluorescence co-localization studies. Cal12T cells were treated with 4H2 (0.5 mg/mL) for one hour and were then washed, fixed, and immunostained with an Alexa488-conjugated anti-mouse IgG antibody. […] Cells treated with 4H2 were also co-immunostained with rabbit primary antibodies against markers of early endosomes (EEA1), lysosomes (LAMP1), Golgi (RASC1), ER (PDI), and mitochondria (COX IV), followed by detection with an Alexa555-conjugated anti-rabbit IgG antibody. Use of the Alexa488 and Alexa555-conjugated antibodies to detect 4H2 and organelle markers allowed separate visualization of 4H2 and organelle locations under GFP and RFP filters, respectively. Merging of the GFP and RFP images should yield a yellow signal in areas of co-localization. DAPI co-stain allowed visualization of nuclei in blue. Representative merged images showing DAPI, GFP, and RFP filters for each co-stain were analyzed.
To explore this, Cal12T cells treated with 4H2 were co-stained for 4H2 and K-Ras using the technique described above.

[4] = test system: Single-stranded M13mp18 DNA; assay: Nucleolytic assay; type: biochemical; conditions: 0.5 mg/mL antibody, 37° C., 10 minutes
Method: Single-stranded M13mp18 DNA (50 ng; New England Biolabs, Ipswich, MA) was incubated at 37° C. for 10 minutes in control binding buffer (50 mM Tris-HCl, 100 mM NaCl, 10 mM MgCl2) or binding buffer containing 0.5 mg/mL 4H2, 3E10, or 5C6.
An intriguing feature of some anti-DNA antibodies is an association with catalytic activities. […] To determine if 4H2 has any effect on DNA integrity it was incubated with single-stranded M13mp18 plasmid DNA for 10 minutes and then evaluated the integrity of the DNA on an agarose gel. 3E10 and 5C6 were also included as negative and positive controls, respectively.

[5] = GTPase assay, colorimetric Pi release from GTP; type: biochemical; conditions: 4H2 0-1 mg/mL, 30 minutes, absorbance at 630 nm
Method: Pi release from GTP after incubation with 4H2 (0-1 mg/mL) for 30 min was measured by colorimetric assay using the Innova GTPase activity kit.
The effect of 4H2 on Pi release from GTP was tested using a colorimetric assay. 4H2 (0-1 mg/mL) was incubated with GTP for 30 minutes, and Pi release was measured using the Innova GTPase activity kit. Concentration of Pi released was determined from absorbance at 630 nm and comparison to a free Pi standard curve. 4H2 in buffer alone was used as a blank.

[6] = test system: Akt phosphorylation in Cal12T cells; assay: Western blot of phospho-Akt; type: cell-based, human; conditions: 1 mg/mL
Method: (§2) Cell lysates were prepared and run on 4-15% SDS-PAGE gradient gels, followed by transfer to membranes. Membranes were then blocked and incubated with the indicated primary antibodies, followed by HRP-conjugated secondary antibody and detection of bands by chemiluminescence. Band intensity measurements were taken using ImageJ.
(§3) To probe the effect of 4H2 on signaling its effect on the phosphorylation of Akt was tested in cells.

[7] = test system: Akt phosphorylation in SW48 human colon cancer cells; assay: Western blot of phospho-Akt; type: cell-based; conditions: 1 mg/mL, 4 hours
Method: FIG. 1A is a line graph showing the effect of 4H2 on release Pi from GTP as measured by colorimetric assay (N=2). FIG. 1B is a bar graph showing the relative amounts of phospho-Akt in Cal12T cells treated with 1 mg/mL 4H2 at 4 and 24 hours relative to control (*p<0.05. N=4). FIG. 1C is a bar graph showing the relative amounts of phospho-Akt in SW48 human colon cancer cells treated with 1 mg/mL 4H2 at 4 hours relative to control (*p<0.05. N=2).
as §2, §3

[8] = test system: G12C K-Ras-mutant Cal12T lung cancer cells; assay: Clonogenic survival by colony formation assay; type: cell-based, human
Method: (§4) FIG. 2A is a line graph showing the effects of 4H2 on a matched pair of isogenic parental (WT) and G12C K-Ras-mutant (KRAS) Cal12T lung cancer cells. Clonogenic survival was measured by colony formation assay (*p<0.02. N=6). FIGS. 2B and 2C are line graphs showing H441 (2B) and H358 K-Ras (2C) addicted human lung cancer cells (G12V and G12C mutations, respectively) treated with control media or media containing 4H2. Surviving fractions were determined by colony formation assay (*p<0.01. N>3). FIG. 2D is a line graph showing the effect of 4H2 on tumor volume (mm^3) of H358 tumor xenografts generated in the flanks of nude mice by subcutaneous injection of tumor cells. Once tumors reached ˜100 mm3 volume mice were treated with direct tumor injection of 50 uL of control PBS or PBS containing 0.5 mg/mL 4H2 twice a week for three weeks. Tumor volumes were monitored, and growth curves are shown. […] N=3 mice per group.
(§5) Aberrations in cell signaling caused by activating mutations in small GTPases such as the Ras family of proteins are found in ˜30% of malignancies, and K-Ras is one of the most frequently mutated small GTPases (Adjei, J Natl Cancer Inst, 93:1062-1074 (2001), Gysin, et al., Genes Cancer, 2:359-372 (2011)). Development of therapies that are preferentially toxic to K-Ras mutant cancer cells is a major goal in oncology. […]

[9] = test system: parental (WT) Cal12T lung cancer cells; assay: Clonogenic survival by colony formation assay; type: cell-based, human; conditions: WT K-Ras
Method: as §4, §5

[10] = test system: H358 K-Ras addicted human lung cancer cells; assay: Surviving fraction by colony formation assay; type: cell-based; conditions: K-Ras G12C
Method: as §4
(§6) Lastly, to confirm that 4H2 is toxic to K-Ras addicted cancer cells in vivo, H358 subcutaneous xenografts were generated in nude mice and treated by direct injection with control buffer or 25 ug of 4H2 twice a week for three weeks.

[11] = test system: H441 K-Ras addicted human lung cancer cells; assay: Surviving fraction by colony formation assay; type: cell-based; conditions: K-Ras G12V
Method: as §4, §6

[12] = test system: H358 subcutaneous xenografts; assay: Tumor growth suppression assay; type: in vivo, nude mice; conditions: intratumoral 25 ug (50 uL of 0.5 mg/mL) twice a week for three weeks; day 15 after initiation of treatment, p<0.01
Method: as §4
Subcutaneous xenografts were generated in nude mice by injection of 1×10^6 H358 cancer cells. Treatment with direct intratumoral injection of 50 uL of control PBS (N=3) or 4H2 in PBS (0.5 mg/mL) (N=3) twice a week for three weeks was initiated once tumors reached ˜100 mm^3. Tumor volumes were tracked by caliper measurements. […]

cAMP in cultured cells = conditions: previous findings; cited from earlier work
[13] = preliminary findings, data not published; cited from earlier work
[14] = test system: Htori-3-LLU thyroid epithelial cells; conditions: cited from earlier work
ERK and Akt = conditions: cited from earlier work

B1: 4H2 scFv: single chain variable fragment of 4H2, SEQ ID NO:22: VL, linker, VH, His6 tag (protein)
scFv: DIVLTQSPATLSVTPGDRVSLSCRASQSISNYLHWYQQKSHESPRLLIKYASQSISGIPSRFSGSGSGTDFTLSIISVETEDFGMYFCQQSNSWPLTFGAGTKLELKADAAPGGGGSGGGGSGGGGSEVQLQQSGPELVKPGASVKMSCKASGYTFTDYYMNWVKQSHGKSLEWIGRVNPSNGGISYNQKFKGKATLTVDKSLSTAYMQLNSLTSEDSAVYYCARGPYTMYYWGQGTSVTVSSHHHHHH
DLD1 colon cancer cells
  cell penetration: cell-penetrating activity

B2: 4H2: monoclonal anti-guanosine antibody produced by a hybridoma from MRL/lpr; VL SEQ ID NO:1, VH SEQ ID NO:5 (antibody, listed as Mus musculus, V domains shown)
VH: EVQLQQSGPELVKPGASVKMSCKASGYTFTDYYMNWVKQSHGKSLEWIGRVNPSNGGISYNQKFKGKATLTVDKSLSTAYMQLNSLTSEDSAVYYCARGPYTMYYWGQGTSVTVSS
VL: DIVLTQSPATLSVTPGDRVSLSCRASQSISNYLHWYQQKSHESPRLLIKYASQSISGIPSRFSGSGSGTDFTLSIISVETEDFGMYFCQQSNSWPLTFGAGTKLELK
[1]
  location of antibody staining in cells: exclusively cytoplasmic staining
[2]
  4H2 signal in nuclei (overlay with Hoechst): absence of 4H2 signal in the nuclei
  FITC fluorescence correlating to 4H2, location: detected in the cytoplasm
  co-localization with mitochondria (MitoTracker): a distinct co-localization with mitochondria could not be confirmed
[3]
  4H2 signal in nuclei (overlay with Hoechst): absence of 4H2 signal in the nuclei
  FITC fluorescence correlating to 4H2, location: detected in the cytoplasm
  co-localization with mitochondria (MitoTracker): a distinct co-localization with mitochondria could not be confirmed
Cal12T cells; 0.5 mg/mL, one hour
  co-localization with endosomes or lysosomes: did not colocalize with endosomes or lysosomes
Cal12T cells; 0.5 mg/mL, one hour, fixed cells
  Alexa488 signal (4H2) location: detected in the cytoplasm
Cal12T cells; 0.5 mg/mL, one hour, fixed cells, merged GFP/RFP images
  localization to organelles: early endosomes (EEA1), lysosomes (LAMP1), Golgi (RASC1), ER (PDI), mitochondria (COX IV): did not appear to directly localize to any of the organelles tested
Cal12T cells; co-stain for 4H2 and K-Ras, merged fluorescence
  co-localization with K-Ras: at least some degree of co-localization
[4]
  effect on DNA integrity (agarose gel): neither 3E10 nor 4H2 had any discernible effects on the DNA integrity
[5]
  Pi release from GTP: dose-dependent release of Pi from GTP
[6]; 24 hours
  amount of phospho-Akt relative to control: reduced the amount of phospho-Akt
[6]; four hours
  amount of phospho-Akt relative to control: reduced the amount of phospho-Akt
[7]
  amount of phospho-Akt relative to control: reduce amounts of p-Akt
[8]
  clonogenic survival, sensitivity to 4H2: highly sensitive to 4H2
[9]
  clonogenic survival, sensitivity to 4H2: more resistant to its effects
[10]
  surviving fraction, sensitivity to 4H2: sensitive to 4H2
[11]
  surviving fraction, sensitivity to 4H2: sensitive to 4H2
[12]
  tumor growth / tumor volume: statistically significant difference in tumor volumes; also recorded: Detectable suppression of tumor growth
cAMP in cultured cells
  cAMP in cells: reduces cAMP in cells
[13]
  cleavage of GTP: catalyzed cleavage of the gamma-phosphate bond in radiolabeled GTP
[14]
  association with mitochondria: appeared to associate with mitochondria
ERK and Akt
  phosphorylation of ERK and Akt: reduce phosphorylation of ERK and Akt
